# Measured values from the supplement of paper PMC9170038.
# Test system: MS2 coat protein
# Assay: apparent KD of MS2 coat protein; designed switch direction (-1 OFF switch, 1 ON switch): -1; higher = weaker reporter binding
# Summary of the method: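 The buffer was Tris-HCl pH 7.5 with KCl, MgCl2, BSA, DTT, tRNA and Tween-20. In it, SNAP-549-labelled MS2 coat protein was titrated in doubling steps from 0.7 or 1.5 nM to 3 µM over chip-bound RNA switches transcribed by stalled E. coli RNA polymerase on Illumina chips. Apparent KD is the per-design median over clusters of curve fits to normalised fluorescence.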
# [1] = Eterna round: R95, input ligand: FMN 200 uM
# [2] = Eterna round: R95, input ligand: microRNA oligo, concentration not stated
# [3] = Eterna round: R95, input ligand: none
Sequence,apparent KD of MS2 coat protein [2],apparent KD of MS2 coat protein (input ligand: FMN 200 uM),apparent KD of MS2 coat protein (input ligand: none),other results
GAAAAGGUAGGAUAUACGAAAAAAAAGGGUAGAAAAAAAACACAUGAGGAUCACCCAUGUAGAAGGACCAAAAU [salish99_ex2_r3_051] (puzzle: Exclusion 2),0.0292 µM,–,–,apparent KD of MS2 coat protein [1]: 0.0769 µM; apparent KD of MS2 coat protein [3]: 0.0267 µM
GAAAAGGUAGGAUAUACGAAAAAAAAGGGUAGGAAAAAAACACAUGAGGAUCACCCAUGUAGAAGGACCAAAAG [salish99_ex2_r3_024] (puzzle: Exclusion 2),0.0218 µM,–,–,apparent KD of MS2 coat protein [1]: 0.0617 µM; apparent KD of MS2 coat protein [3]: 0.0198 µM
"GAAGAAGAGAGAAAAGAAAACAUGAGGAUCACCCAUGUGAGAAGAUGAGGGUGAUACAGGCUAUAUGCUCGUCUUAU (puzzle: Sensor v3, turn-off variant 1)",0.0288 µM,–,–,apparent KD of MS2 coat protein [1]: 0.247 µM; apparent KD of MS2 coat protein [3]: 0.295 µM
"GAAGUAUGAGUUAGGAUAUGAUGAUUUUUAUUAAAUCAGAAGGAACUUGAGGAUCACCCAAGUAAAGAAUUGGU [JR_BMEx4_Sub070] (Eterna round: R97, puzzle: Brourd's mod of Exclusion 4)",–,0.0161 µM,0.0156 µM,–
"GAAUAGAGAGGAUAUGCGUAGUAGGUAGUAAGAUAUAUAUGACAUGAGGAUCACCCAUGUAGAAGGCUCAGAUA [EX2 #2] (Eterna round: R97, puzzle: Exclusion 2)",–,0.0383 µM,0.0358 µM,–
"GAAUGAGAGCAGGAUAUCUUAUAAAUGUAUGAAAGAGAAGGGCUCACAUGAGGAUCACCCAUGUGGUCCUAAAU [jl-ex6-4.74 jandersonlee mod] (Eterna round: R97, puzzle: Exclusion 6)",–,0.286 µM,0.0445 µM,–
GACAAGGGAGGAUAUGCACAAGGGAUAUCUGACAUGCCGUUACAUGAGGAUCACCCAUGUAGAAGGCCCGAAUA [Didiin] (puzzle: Exclusion 2),0.0133 µM,–,–,–
"GACAAGGUGUAGGAUAUGCUUAGCCUUAAGAAAGCAGAAGGACAAACUUGAGGAUCACCCAAGUGGUCCAAACA [Diraveti] (Eterna round: R97, puzzle: Exclusion 6)",–,0.0655 µM,0.0196 µM,–
"GACACCAAAGGAUAUACAUGAGGAUCACCCAUGUGCUGCAAAAGCUGAGCUCAAAUGUGUAGAAGGUUGAAAUA [Eternabot (Original) Solution 40] (Eterna round: R97, puzzle: Exclusion 3)",–,0.039 µM,0.0316 µM,–
"GACCAACGGGUUUACCUUUACAUGAGGAUCACCCAUGUCGCAAGCUUUUUCUCGGGUCCAAUCUUAUAAAUAUUAAU [Legedi] (puzzle: Sensor v3, turn-off variant 1)",0.314 µM,–,–,apparent KD of MS2 coat protein [1]: 0.144 µM; apparent KD of MS2 coat protein [3]: 0.179 µM
GACGUGUGAGGAUAUCCGAUGCCGGUCCGGAAGGUUCGGGUGGAGAAGGCACAUGAGGAUCACCCAUGUGUAAG [Excls4-VII] (puzzle: Exclusion 4),0.0164 µM,–,–,–
"GACGUGUUAGGAUAUAGCUCUCGGGACAGCAAUGAUCCGAGUUAGAAGGAACAUGAGGAUCACCCAUGUUAUUU [Eternabot (L2) Solution 60] (Eterna round: R97, puzzle: Exclusion 4)",–,0.0184 µM,0.0211 µM,–
GACUAGGCAGGAUAUACAUGAGGAUCACCCAUGUGUCUGCGUUAAGCACGUGAAGACGGUAGAAGGGCCUUCAC [ChP 13.04.2015 #17] (puzzle: Exclusion 3),0.0103 µM,–,–,–
"GACUGAAUUUUGUUUGGUUACAUGAGGAUCACCCAUGUUGGUCUAAGAACAUGUCUUUUGUACGCUUGUCUUAUAUA [JR_SV3TOV1_Sub069] (puzzle: Sensor v3, turn-off variant 1)",0.0449 µM,–,–,apparent KD of MS2 coat protein [1]: 0.0689 µM; apparent KD of MS2 coat protein [3]: 0.1 µM
GAGAAGGUAGGAUAUACGAAGAAAGAGGGUAGGAAGAAGACACAUGAGGAUCACCCAUGUAGAAGGACCAAGAG [Mat - Exclusion 2 - Mod of my Tesla design - D48] (puzzle: Exclusion 2),0.0139 µM,–,–,apparent KD of MS2 coat protein [1]: 0.0272 µM; apparent KD of MS2 coat protein [3]: 0.0141 µM
"GAGAGAGCCAUAGGAUAUGCCCGCCCGCUUGCGGCAGAAGGAUGUUGACAUGAGGAUCACCCAUGUGGAUCGCCCAUGUUUGUG [All by luck] (Eterna round: R96, puzzle: Exclusion NG 1)",–,0.604 µM,0.286 µM,"apparent KD of MS2 coat protein (input ligand: microRNA oligo, concentration not stated): 0.191 µM"

Sequence,apparent KD of MS2 coat protein [2],apparent KD of MS2 coat protein (input ligand: FMN 200 uM),apparent KD of MS2 coat protein (input ligand: none),other results
"GAGAGCAACGUCAGGAUAUUUAACCAAAACGCGGUAGAGAAGGGACAUGAGGAUCACCCAUGUGACUUCGGGCA [Eternabot (L1) Solution 83] (Eterna round: R97, puzzle: Brourd's mod of Exclusion 4)",–,0.0155 µM,0.0168 µM,–
"GAGCUGUGAGGAUAUACAUGAGGAUCACCCAUGUAAUGGUAGUCGGGAUUAAUUUGGUGUAGAAGGCGCUUAUU [JR_Ex3_Sub020] (Eterna round: R97, puzzle: Exclusion 3)",–,0.041 µM,0.046 µM,–
GAGGAUAGAGGAUAUGCAUAGAUACGGAUUCGUGUAGUACUACAUGAGGAUCACCCAUGUAGAAGGCUGUCCAG [Mat - Exclusion 2 - Mod of JL - D75] (puzzle: Exclusion 2),0.0128 µM,–,–,–
"GAGGCAUGCCUAGGUCCACACAUGAGGAUCACCCAUGUAAUGACAGGCUUUUUACUCGUUUUAUCGCUAUCGCGUUC [Enaor] (puzzle: Sensor v3, turn-off variant 1)",0.0207 µM,–,–,apparent KD of MS2 coat protein [1]: 0.0132 µM; apparent KD of MS2 coat protein [3]: 0.0118 µM
"GAGGUCGCAGGAUAUAGUACAUAGAACAUGAGGAUCACCCAUGUAGCGGGAGGUUCUAUAUUAGAAGGGUGAAGUC [Eternabot (L2) Solution 97] (Eterna round: R97, puzzle: Exclusion 5)",–,0.572 µM,0.494 µM,–
GAGUGACAUGAGGAUCACCCAUGUGAGGAUAUCGGACGGACCAAAUUAACAAUAGAAGCGAGAAGGCACAUAAG [Exclusion 1 V11] (puzzle: Exclusion 1),0.0743 µM,–,–,apparent KD of MS2 coat protein [1]: 0.0724 µM; apparent KD of MS2 coat protein [3]: 0.0813 µM
"GAGUUAGCGUGUGGCACAUACAUGAGGAUCACCCAUGUUAGCUUAUAUAUUGCUCGUCUUAUAACAACACUUAACUG [Mod JX-Electric-eye5] (Eterna round: R97, puzzle: Sensor, turn-off variant 1)",–,0.0225 µM,0.0239 µM,–
GAUACACAUGAGGAUCACCCAUGUGAGGAUAUGCGUACGUUGUCCGUAGGCGACGUGCGCAGAAGGCGCAAGGU [Mat - Mod of JL D96] (puzzle: Exclusion 1),0.055 µM,–,–,–
"GAUACCUAUGUAAGGAUAUAUAAAGAGAGCCGCCUGUAGAAGGUACAUGAGGAUCACCCAUGUUGGGAGACCGA [Eternabot (L1) Solution 17] (Eterna round: R97, puzzle: Brourd's mod of Exclusion 4)",–,1.16 µM,1.39 µM,–
GAUCAACAUGAGGAUCACCCAUGUGAGGAUAUGUAUCAUAGAUCUUCGGAUCUAUGAUACAGAAGGCAUGUAGG [Ex1-3: 100] (puzzle: Exclusion 1),0.0742 µM,–,–,–
"GAUCAGAUAGGAUAUACAGGCCCGUCUUUAUAUUGAUCCCGACAUGAGGAUCACCCAUGUAGAAGGAUCAGAUC [Mod 28 - Jieux - Exclusion 2] (Eterna round: R97, puzzle: Exclusion 2)",–,0.0233 µM,0.0175 µM,–
"GAUCAUGCAGGAUAUACAGUUUCCAUGAAAACAUGGAACUCACAUGAGGAUCACCCAUGUAGAAGGGCAUGAUC [Omei Ex2 A26] (Eterna round: R97, puzzle: Exclusion 2)",–,0.0259 µM,0.0162 µM,–
"GAUCAUGCAGGAUAUACAGUUUCCAUGAAAACAUGGUCCUCACAUGAGGAUCACCCAUGUAGAAGGGCAUGAUC [Omei Ex2 A28] (Eterna round: R97, puzzle: Exclusion 2)",–,0.151 µM,1.49 µM,–
GAUCCACAUGAGGAUCACCCAUGUGAGGAUAUGAUACUAUGUACUUCGGUACAUAGUAUCAGAAGGCACAUUGA [Ex1-3: 45] (puzzle: Exclusion 1),0.136 µM,–,–,–
"GAUCCUUCUGUUAGGAUAUGCUUUGGGCUUCCGCAGCAGAAGGAACAUGAGGAUCACCCAUGUCAAAUAAAAUC [salish99_bmex4_r4_501] (Eterna round: R97, puzzle: Brourd's mod of Exclusion 4)",–,0.0255 µM,0.0271 µM,–
"GAUCCUUCUGUUAGGAUAUGCUUUGGGCUUCCGCAGCAGAAGGAACAUGAGGAUCACCCAUGUCCAAUGCCAUC [salish99_bmex4_r4_505] (Eterna round: R97, puzzle: Brourd's mod of Exclusion 4)",–,0.0461 µM,0.0391 µM,–
